Consider eleven molecules from patent US20260022175A1 (Chugai, published 2026).

Test [1] has as its target T1, hCTLA4-His-BAP (human CTLA4 extracellular region with C-terminal His-tag and BAP-tag) (human, biotin on the BAP-tag).
T1 construct: also called hCTLA4-His-Biotin
Kind of test: SPR 37C, ATP 10 µM.

Test [2] concerns the target T2, human CTLA4 (human).
T2 construct: also called hCTLA4; hCTLA4-His-BAP
Kind of test: SPR Biacore T200, 37C, antibody captured, ATP 100 uM; ATP 100 µM. For orientation: In SPR one partner is held on a chip, and binding of the other changes the refractive index at the surface.

Test [3] has as its target T2, human CTLA4. Kind of test: SPR Biacore T200, 37C, antibody captured, ATP 10 uM; ATP 10 µM; binding amount.
Test [4] addresses T2, human CTLA4. Kind of test: SPR Biacore T200, 37C, antibody captured, ATP 100 uM; ATP 100 µM; binding amount.
For test [5], the target named is T2, human CTLA4. Kind of test: SPR Biacore T200, 37C, antibody captured, no ATP; no ATP; binding amount.
The target in test [6] is T2, human CTLA4. Kind of test: SPR Biacore T200, 37C, antibody captured, ATP 1 uM; ATP 1 µM; binding amount.
In test [7] the target is T2, human CTLA4. Kind of test: SPR Biacore T200, 37C, antibody captured, ATP 10 uM; ATP 10 µM.
For test [8], the target named is T1, hCTLA4-His-BAP (human CTLA4 …). Kind of test: SPR 37C, no ATP, steady state model.
Test [9] has the same target. Kind of test: SPR 37C, ATP 100 µM.
For test [10] the target is unchanged. Kind of test: SPR 37C, ATP 10 µM. The source holds these as a separate data set.
For test [11], the target named is T2, human CTLA4. Kind of test: SPR Biacore T200, 37C, antibody captured, no ATP, steady state model.
Test [12] deals with T2, human CTLA4. Kind of test: SPR Biacore T200, 37C, antibody captured, ATP 10 uM.
Test [13] addresses T2, human CTLA4. Kind of test: SPR Biacore T200, 37C, antibody captured, ATP 100 uM.
Test [14] deals with T2, human CTLA4. Kind of test: SPR Biacore T200, 37C, antibody captured, no ATP, steady state model. The source holds these as a separate data set.
Test [15] concerns the target T2, human CTLA4. Kind of test: SPR Biacore T200, 37C, antibody captured, ADP 10 uM.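 Also: antibodies held on a Protein G CM3 chip, human CTLA4 as analyte in ACES pH 7.4 buffer, rates from a global 1:1 Langmuir fit, Kd from rates or steady state.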
Test [16] addresses T2, human CTLA4. Kind of test: SPR Biacore T200, 37C, antibody captured, ATP 10 uM. The source holds these as a separate data set.
Test [17] has as its target T2, human CTLA4. Kind of test: SPR Biacore T200, 37C, antibody captured, AMP 10 uM.
Test [18] deals with T2, human CTLA4. Kind of test: SPR Biacore T200, 37C, antibody captured, ATP 10 uM. This is another data set of the same source.
The target in test [19] is T2, human CTLA4. Kind of test: SPR Biacore T200, 37C, antibody captured, ATP 1 uM.
Test [20] concerns the target T3, Abatacept (human IgG1 constant region fused to hCTLA4) (human, UniProt P16410 38-161, biotinylated by amine coupling).
T3 construct: bought drug; also called Abatacept-Biotin; biotin-labeled abatacept
T3 sequence (looked up): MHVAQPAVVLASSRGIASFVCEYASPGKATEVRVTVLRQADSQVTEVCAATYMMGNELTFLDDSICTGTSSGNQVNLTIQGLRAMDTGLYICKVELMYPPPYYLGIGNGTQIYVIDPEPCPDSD
Kind of test: phage ELISA. A general note: An ELISA detects its analyte on a solid surface through an enzyme-linked reagent.

Test [21] concerns the target T4, mCTLA4-His (mouse CTLA4 extracellular region linked with a His-tag) (mouse, UniProt P09793 36-161). Kind of test: SPR 37C, ATP 100 µM.
Test [22] addresses T4, mCTLA4-His (mouse CTLA4 extracellular …). Kind of test: SPR 37C, ATP 10 µM.

Where a chain is given by its changes, count along the chain named.

T2 sequence (chain, as listed by the source limits assumed): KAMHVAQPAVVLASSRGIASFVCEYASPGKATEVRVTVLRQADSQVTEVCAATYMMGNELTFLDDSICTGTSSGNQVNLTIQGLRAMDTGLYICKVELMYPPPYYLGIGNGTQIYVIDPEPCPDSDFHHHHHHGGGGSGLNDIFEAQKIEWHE
T1 sequence (chain, as listed by the source limits assumed): as above

B1: 04H1389-G1m/04L1086-lam1 (antibody, human IgG1, lambda, V domains shown)
VH: EVQLVESGGGLVKPGGSLRLSCAASGFTFSSKTMNWVRQAPGKGLEWVSSISTQSHYIYYAESVKGRFTISRDNAKNSLYLQMNSLRAEDTAVYYCARYGKREDMLWVFDYWGQGTLVTVSS
VL: QSALTQPPSASGSPGQTVTISCDGPSTGVGDYNYVHWYQQHPGKAPKLMIYFTSKKPSGVPDRFSGSKSGNTASLTVSGLQAEDEADYFCQTYAAPLGPMFGGGTKLTVLG
Take B1: the “fold enhancement of binding ability against parent 04H1207-G1m/04L1086-lam1” value in [1] is around 10 fold.

B2: 04H1382-G1m/04L1086-lam1 (antibody, human IgG1, lambda, V domains shown)
VH: B1 VH with E62R
VL: B1 VL
A word on the Kd: it is the equilibrium constant for the complex coming apart. Low readings indicate tighter binding, high ones weaker binding. Regarding B2, the Kd with human CTLA4 [2] worked out at 14 nM; with human CTLA4 [7], 46 nM. Further, the “Binding to Human CTLA4 (binding amount per unit amount of antibody)” value with human CTLA4 [3] was determined as 0.152; in the test with human CTLA4 [4], 0.159; in the test with human CTLA4 [5], 0.008; in the test with human CTLA4 [6] it was 0.09.

B3: 04H1207-G1m/04L1086-lam1 (antibody, human IgG1, lambda, V domains shown)
VH: B1 VH with Q54R, H56G
VL: B1 VL
notes: Human IgG1 constant region G1m (C-terminal Gly and Lys removed), human lambda chain lam1
With B3, the Kd in the test with human CTLA4 [2] was 76 nM; with human CTLA4 [7], 400 nM. The “Binding to Human CTLA4 (binding amount per unit amount of antibody)” value was determined as 0.111 with human CTLA4 [3], 0.166 in the test with human CTLA4 [4], 0.01 in the test with human CTLA4 [5] and 0.037 with human CTLA4 [6].

B4: 04H1077-G1m/04L1305-k0MT (antibody, human IgG1, kappa, V domains shown)
VH: B1 VH with G10D, S17G, K32R, Q54R, H56G
VL: DIVMTQSPLSLPVTPGEPASISCDGPSTGVGDYNYVHWYQQKPGQAPRLLIYFTSKKPSGVPDRFSGSGSGTDFTLKISRVEAEDVGVYYCQTYAAPLGPMFGQGTKLEIKR
In the case of B4, the Kd was 6500 nM in test [8], 56 nM in [9] and 360 nM in [10].

B5: 04H1077-G1m/04L1066-lam1 (antibody, human IgG1, lambda, V domains shown)
VH: B1 VH with G10D, S17G, K32R, Q54R, H56G
VL: B1 VL with G28D, Y34W, Q91S
On to B5, for which the figures for the Kd in [8], in test [9] and in test [10] were 6900 nM, 48 nM and 280 nM, respectively.

B6: 04H1389-G1m/04L1086-lam1 (antibody, human IgG1, lambda, V domains shown)
VH: B1 VH
VL: B1 VL
In general, koff refers to the rate constant with which the complex falls apart. A lower koff goes with slow dissociation. As usually defined, the kon is the second-order rate constant of association. Turning to B6, the Kd with human CTLA4 [11] stood at 5700 nM; with human CTLA4 [12] it was 43 nM; with human CTLA4 [13], 21 nM; with human CTLA4 [14], 5100 nM; with human CTLA4 [15], 44 nM; with human CTLA4 [16], 37 nM. Besides, the Kd is 130 nM with human CTLA4 [17], 32 nM with human CTLA4 [18] and 180 nM with human CTLA4 [19]. Moreover, the koff amounted to 0.0061 s⁻¹ with human CTLA4 [15], 0.018 s⁻¹ with human CTLA4 [17] and 0.0032 s⁻¹ with human CTLA4 [18]. Further, the figures for the kon with human CTLA4 [15], with human CTLA4 [17] and with human CTLA4 [18] were 140000 M⁻¹ s⁻¹, 140000 M⁻¹ s⁻¹ and 100000 M⁻¹ s⁻¹, respectively.

B7: 04H1208-G1m/04L1086-lam1 (antibody, human IgG1, lambda, V domains shown)
VH: B1 VH with Q54R, H56G, E62R
VL: B1 VL
In the case of B7, the Kd is 91 nM in the test with human CTLA4 [2] and 510 nM with human CTLA4 [7]. Further, the “Binding to Human CTLA4 (binding amount per unit amount of antibody)” value with human CTLA4 [3] was found to be 0.084; with human CTLA4 [4], 0.139; with human CTLA4 [5] it was 0.003; with human CTLA4 [6], 0.022.

B8: 04H1382-G1m/04L1086-lam1 (antibody, human IgG1, lambda, V domains shown)
VH: B1 VH with E62R
VL: B1 VL
Take B8: in test [1], the “fold enhancement of binding ability against parent 04H1208-G1m/04L1086-lam1” value was around 10 fold.

B9: ABAM001 (antibody, human IgG1, V domains shown)
VH: EVQLVESGGDLVKPGGGLRLSCAASGFTFSSYTMHWVRQAPGKGLEWVSSISSRSRYKYYADSVKGRFTISRDNAKNSLYLQMNSLRAEDTAVYYCARFGIKNKRNWVLDYWGQGTLVTVSS
VL: QSALTQPPSASGSPGQTVTISCTGTSTDVGAYNYVSWYQQHPGKAPKLMIYQVSKRPSGVPDRFSGSKSGNTASLTVSGLQAEDEADYFCSLYTTRPQLAFGGGTKLTVL
notes: also called ABADh11-4_020
B9: in [20], the binding result is “binds”.

B10: ABAM003 (antibody, human IgG1, V domains shown)
VH: B9 VH with S31G, K58A, Y59S, K104H, R105L, L109F
VL: QSALTQPPSASGSPGQTVTISCTGTSSDVGDYNYVSWYQQHPGKAPKLMIYGVSKRPSGVPDRFSGSKSGNTASLTVSGLQAEDEADYFCSTVSTSHSPVFGGGTKLTVL
notes: also called ABADh12-4_014
As for B10, in test [20], the binding result was “binds”.

B11: hUH02-G1d/hUL01-k0 (antibody, human IgG1, kappa, V domains shown)
VH: QVQLQESGPGLVKPSETLSLTCTVSGYSISSGYGWNWIRQPPGKGLEWIGFIYYEGSTYYNPSIKSRISITRDTSKNQFFLQVNSVTTEDTATYYCARQTGYFDYWGQGTLVTVSS
VL: DIVMTQSPDSLAVSLGERATINCKSSQSLFNSNAKTNYLNWYQQKPGQPPKLLIYYASTRHTGVPDRFSGSGSGTDFTLTISSLQAEDVAVYYCQQWYDYPYTFGAGTKVEIKR
notes: also called anti-mouse CTLA4 antibody
Consider B11, for which the Kd in test [21] and in test [22] was 110 nM each time.
